Laboratory results from doi:10.1101/2020.09.21.306357.

Target: ACE2-Fc (soluble human ACE2 fused to human IgG Fc) (human) (UniProt Q9BYF1)
Experiment: BLI

Chain of ACE2-Fc (soluble human ACE2 fused to human IgG Fc) (human) (Q9BYF1 18-738): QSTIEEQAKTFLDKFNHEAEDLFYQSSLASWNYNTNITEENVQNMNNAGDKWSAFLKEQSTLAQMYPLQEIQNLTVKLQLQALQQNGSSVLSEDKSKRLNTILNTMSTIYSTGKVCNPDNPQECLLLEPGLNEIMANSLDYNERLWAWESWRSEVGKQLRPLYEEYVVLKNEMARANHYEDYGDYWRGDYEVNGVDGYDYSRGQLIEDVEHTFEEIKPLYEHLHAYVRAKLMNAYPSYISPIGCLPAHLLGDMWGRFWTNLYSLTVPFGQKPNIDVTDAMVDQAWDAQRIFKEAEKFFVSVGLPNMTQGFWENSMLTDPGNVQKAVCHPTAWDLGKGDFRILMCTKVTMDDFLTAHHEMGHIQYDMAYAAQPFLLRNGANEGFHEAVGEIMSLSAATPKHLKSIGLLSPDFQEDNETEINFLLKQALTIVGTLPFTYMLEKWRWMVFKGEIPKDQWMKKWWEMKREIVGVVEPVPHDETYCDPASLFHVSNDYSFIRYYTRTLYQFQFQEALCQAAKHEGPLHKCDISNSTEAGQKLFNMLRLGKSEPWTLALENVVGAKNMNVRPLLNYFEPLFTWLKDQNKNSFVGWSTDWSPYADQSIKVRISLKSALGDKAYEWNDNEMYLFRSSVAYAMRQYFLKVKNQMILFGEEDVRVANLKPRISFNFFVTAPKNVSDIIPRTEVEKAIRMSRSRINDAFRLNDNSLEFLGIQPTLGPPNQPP

SARS-CoV-1 S-Trimer (wild-type SARS-CoV S ectodomain fused to Trimer-Tag) (from UniProt P59594 14-1193) (domain or fragment)
Kd: 1.2 nM
